± gives the uncertainty stated by the source.
Test: protein stability index of a GFP-peptide fusion (yeast GPS) (PSI 1-4); higher = more stable; sorted into four equal gates, so the index is relative within each strain
In short: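 The protein stability index combines read frequencies across sorting gates, each weighted by its gate number and then summed. To obtain those frequencies, a pooled yeast library of GFP fusions to tiled 17-residue yeast protein peptides, on a plasmid also expressing Cherry, was grown to mid-log phase in leucine-free medium. The cells were sorted into four equal gates by GFP/Cherry ratio before plasmid amplification by PCR and Illumina sequencing.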

## NPTEFDWPTYVDQNPLT [SRB8]
doa10∆
  protein stability index: 2.85 ± 0.068
pdr5∆
  protein stability index: 2.44 ± 0.043
san1∆
  protein stability index: 2.69 ± 0.054
ubr1∆
  protein stability index: 2.19 ± 0.046

## KNPLFSYVEPVLVASAK [RPL31A]
doa10∆
  protein stability index: 2.95 ± 0.075
pdr5∆
  protein stability index: 2.57 ± 0.064
san1∆
  protein stability index: 2.49 ± 0.066
ubr1∆
  protein stability index: 2.76 ± 0.05

## AGFDPRDDEPKLYQTEP [PRE6]
doa10∆
  protein stability index: 3.24 ± 0.084
pdr5∆
  protein stability index: 3.03 ± 0.12
san1∆
  protein stability index: 3.1 ± 0.05
ubr1∆
  protein stability index: 3.24 ± 0.07

## AVCSTATVVSTNHSAAA [PGD1]
doa10∆
  protein stability index: 2.85 ± 0.064
pdr5∆
  protein stability index: 3.02 ± 0.077
san1∆
  protein stability index: 2.59 ± 0.096
ubr1∆
  protein stability index: 2.91 ± 0.061

## PTLPRSDRECPKCHSRE [RPB9]
doa10∆
  protein stability index: 2.79 ± 0.052
pdr5∆
  protein stability index: 2.92 ± 0.056
san1∆
  protein stability index: 2.82 ± 0.053
ubr1∆
  protein stability index: 2.84 ± 0.043

## GLVCADTFRAGAFDQLK [SRP54]
doa10∆
  protein stability index: 3.14 ± 0.1
pdr5∆
  protein stability index: 3.54 ± 0.1
san1∆
  protein stability index: 3.34 ± 0.11
ubr1∆
  protein stability index: 3.25 ± 0.084

## FSAPIRPDIVHTVFTSV [RPL4A]
doa10∆
  protein stability index: 1.7 ± 0.056
pdr5∆
  protein stability index: 2.07 ± 0.057
san1∆
  protein stability index: 1.73 ± 0.094
ubr1∆
  protein stability index: 2.16 ± 0.056

## PGVLPVGIDTHTATDIY [SNF2]
doa10∆
  protein stability index: 2.96 ± 0.066
pdr5∆
  protein stability index: 3.04 ± 0.064
san1∆
  protein stability index: 2.77 ± 0.045
ubr1∆
  protein stability index: 2.69 ± 0.04

## ESNNKKYPIFTGESWVK [YDL088C/ASM4]
doa10∆
  protein stability index: 2.73 ± 0.062
pdr5∆
  protein stability index: 2.59 ± 0.081
san1∆
  protein stability index: 2.33 ± 0.083
ubr1∆
  protein stability index: 2.74 ± 0.06

## GKPVSLPLLYNFNPDNG [FAS1]
doa10∆
  protein stability index: 2.93 ± 0.095
pdr5∆
  protein stability index: 3.27 ± 0.1
san1∆
  protein stability index: 2.62 ± 0.075
ubr1∆
  protein stability index: 2.92 ± 0.076

## LLKKIIFEKELMYQIKK [SRB4]
doa10∆
  protein stability index: 2.8 ± 0.073
pdr5∆
  protein stability index: 2.67 ± 0.083
san1∆
  protein stability index: 2.32 ± 0.09
ubr1∆
  protein stability index: 2.17 ± 0.05

## QETCDKLRARLVEYGFD [SMC2]
doa10∆
  protein stability index: 2.17 ± 0.14
pdr5∆
  protein stability index: 2.52 ± 0.093
san1∆
  protein stability index: 1.96 ± 0.089
ubr1∆
  protein stability index: 1.57 ± 0.034

## EWDMLNVEEEQIVPYIE [BRR2]
doa10∆
  protein stability index: 3.2 ± 0.17
pdr5∆
  protein stability index: 3.41 ± 0.18
san1∆
  protein stability index: 3.02 ± 0.24
ubr1∆
  protein stability index: 3.45 ± 0.29

## ESELSLLEETQAKLKKN [SMC4]
doa10∆
  protein stability index: 2.7 ± 0.17
pdr5∆
  protein stability index: 3.37 ± 0.2
san1∆
  protein stability index: 2.88 ± 0.23
ubr1∆
  protein stability index: 3.11 ± 0.14

## VNDRSDISDSEGGLFEC [PCI8]
doa10∆
  protein stability index: 3.38 ± 0.2
pdr5∆
  protein stability index: 3.11 ± 0.12
san1∆
  protein stability index: 3.45 ± 0.071
ubr1∆
  protein stability index: 3.08 ± 0.11

## RREFKQYSLERNSPFWW [PRP8]
doa10∆
  protein stability index: 3.06 ± 0.12
pdr5∆
  protein stability index: 3.64 ± 0.12
san1∆
  protein stability index: 3.1 ± 0.12
ubr1∆
  protein stability index: 3.19 ± 0.14

## IVDFTLPPPPPPPGLDE [PRP8]
doa10∆
  protein stability index: 3.15 ± 0.05
pdr5∆
  protein stability index: 3.1 ± 0.048
san1∆
  protein stability index: 3.2 ± 0.038
ubr1∆
  protein stability index: 3.14 ± 0.039

## KPKMLPIPSKPTLFDLA [SRP68]
doa10∆
  protein stability index: 2.48 ± 0.071
pdr5∆
  protein stability index: 2.54 ± 0.072
san1∆
  protein stability index: 2.31 ± 0.099
ubr1∆
  protein stability index: 2.53 ± 0.06

## NRLSRIHLYMLTFHTLK [YLR018C/POM34]
doa10∆
  protein stability index: 1.42 ± 0.068
pdr5∆
  protein stability index: 1.58 ± 0.06
san1∆
  protein stability index: 1.54 ± 0.12
ubr1∆
  protein stability index: 1.44 ± 0.047

## TEEKCKNFIESESVGAF [YJL039C/NUP192]
doa10∆
  protein stability index: 3.43 ± 0.15
pdr5∆
  protein stability index: 3.23 ± 0.088
san1∆
  protein stability index: 3.33 ± 0.062
ubr1∆
  protein stability index: 3.47 ± 0.056

## VGVDQLSIELEGGKNQA [YJL039C/NUP192]
doa10∆
  protein stability index: 3.08 ± 0.27
pdr5∆
  protein stability index: 3.23 ± 0.16
san1∆
  protein stability index: 3.06 ± 0.076
ubr1∆
  protein stability index: 2.46 ± 0.14

## YENSISKDLRSVWKPIA [IRR1]
doa10∆
  protein stability index: 2.58 ± 0.092
pdr5∆
  protein stability index: 2.63 ± 0.11
san1∆
  protein stability index: 2.57 ± 0.064
ubr1∆
  protein stability index: 2.54 ± 0.05

## TDQSTEEEKSVDASPND [CSL4]
doa10∆
  protein stability index: 2.88 ± 0.2
pdr5∆
  protein stability index: 2.8 ± 0.21
ubr1∆
  protein stability index: 3.06 ± 0.17

## GGCDYIFSLLTGYPDEP [CYT1]
doa10∆
  protein stability index: 3.42 ± 0.14
pdr5∆
  protein stability index: 3.39 ± 0.15
san1∆
  protein stability index: 2.77 ± 0.081
ubr1∆
  protein stability index: 3.08 ± 0.081

## AQAQAQAQAQAQAQAQA [GAL11]
doa10∆
  protein stability index: 2.95 ± 0.03
pdr5∆
  protein stability index: 3.23 ± 0.035
san1∆
  protein stability index: 2.98 ± 0.026
ubr1∆
  protein stability index: 3.09 ± 0.033

## KTEDGFVIPALPAAVSK [RPC82]
pdr5∆
  protein stability index: 2.41 ± 0.26
ubr1∆
  protein stability index: 2.8 ± 0.2

## EDYELSPQAVSSFVRQE [PRE1]
doa10∆
  protein stability index: 2.29 ± 0.14
pdr5∆
  protein stability index: 2.42 ± 0.15
san1∆
  protein stability index: 2.31 ± 0.093
ubr1∆
  protein stability index: 2.53 ± 0.083

## KKCHRLLWTPKKLEITS [RPR2]
doa10∆
  protein stability index: 2.35 ± 0.045
pdr5∆
  protein stability index: 2.48 ± 0.044
san1∆
  protein stability index: 2.59 ± 0.038
ubr1∆
  protein stability index: 2.34 ± 0.031

## LEGNDIHALAAKLLQEN [FAS1]
doa10∆
  protein stability index: 2.76 ± 0.063
pdr5∆
  protein stability index: 2.95 ± 0.065
san1∆
  protein stability index: 2.77 ± 0.051
ubr1∆
  protein stability index: 2.7 ± 0.059

## KVVNGNSADAAYAQVEI [FAS2]
doa10∆
  protein stability index: 2.53 ± 0.063
pdr5∆
  protein stability index: 2.67 ± 0.07
san1∆
  protein stability index: 2.14 ± 0.068
ubr1∆
  protein stability index: 2.42 ± 0.057

## EKTGKSASLKKIQQHNT [BRR2]
pdr5∆
  protein stability index: 2.96 ± 0.2

## LFQVEYSLEAIKLGSTA [PUP2]
doa10∆
  protein stability index: 1.61 ± 0.075
pdr5∆
  protein stability index: 2.32 ± 0.069
san1∆
  protein stability index: 2.08 ± 0.12
ubr1∆
  protein stability index: 2.2 ± 0.053

## FKRDLLREKEDKKNSSD [YJL039C/NUP192]
doa10∆
  protein stability index: 3.38 ± 0.13
pdr5∆
  protein stability index: 2.92 ± 0.18
san1∆
  protein stability index: 3.23 ± 0.064
ubr1∆
  protein stability index: 3 ± 0.14

## LDQLLVLEKKTRQASDL [RPN5]
doa10∆
  protein stability index: 3.19 ± 0.12
pdr5∆
  protein stability index: 2.95 ± 0.1
san1∆
  protein stability index: 3.1 ± 0.07
ubr1∆
  protein stability index: 2.71 ± 0.097

## FQSVQLNINNPNFLIMQ [SMC2]
doa10∆
  protein stability index: 2.6 ± 0.06
pdr5∆
  protein stability index: 2.62 ± 0.071
san1∆
  protein stability index: 1.75 ± 0.062
ubr1∆
  protein stability index: 2.1 ± 0.061

## MQQAQFQAQQAQQAQQA [SNF2]
doa10∆
  protein stability index: 2.56 ± 0.043
pdr5∆
  protein stability index: 2.86 ± 0.039
san1∆
  protein stability index: 2.62 ± 0.032
ubr1∆
  protein stability index: 2.53 ± 0.032

## GLMLGEFVDDYTVNVVD [RPN11]
doa10∆
  protein stability index: 3.32 ± 0.13
pdr5∆
  protein stability index: 3.26 ± 0.1
san1∆
  protein stability index: 3.13 ± 0.14
ubr1∆
  protein stability index: 3.09 ± 0.076

## YSSILGNSFNKSSNDTI [YCG1]
doa10∆
  protein stability index: 2.5 ± 0.048
pdr5∆
  protein stability index: 2.77 ± 0.042
san1∆
  protein stability index: 2.62 ± 0.037
ubr1∆
  protein stability index: 2.81 ± 0.049

## SFFNISPDAPKEIMDKI [SIN4]
doa10∆
  protein stability index: 3.48 ± 0.11
pdr5∆
  protein stability index: 3.32 ± 0.14
san1∆
  protein stability index: 3 ± 0.13
ubr1∆
  protein stability index: 3.29 ± 0.1

## VDDAIELALKTLSKTTD [PRE9]
doa10∆
  protein stability index: 2.43 ± 0.066
pdr5∆
  protein stability index: 1.92 ± 0.063
san1∆
  protein stability index: 2.42 ± 0.074
ubr1∆
  protein stability index: 2.64 ± 0.057

## GIGGDHAKFSPVSTASY [RPC40]
doa10∆
  protein stability index: 2.59 ± 0.079
pdr5∆
  protein stability index: 2.9 ± 0.12
san1∆
  protein stability index: 2.28 ± 0.098
ubr1∆
  protein stability index: 2.9 ± 0.062

## FPGDSFPVDPTTPVKLG [RRP40]
doa10∆
  protein stability index: 2.45 ± 0.058
pdr5∆
  protein stability index: 2.58 ± 0.053
san1∆
  protein stability index: 2.65 ± 0.045
ubr1∆
  protein stability index: 2.62 ± 0.048

## VRSAEYYAKKRAFTKKV [RPL16B]
doa10∆
  protein stability index: 2.66 ± 0.1
pdr5∆
  protein stability index: 2.18 ± 0.066
san1∆
  protein stability index: 2.61 ± 0.091
ubr1∆
  protein stability index: 3.1 ± 0.063

## LELRNSVMDDILEMMPE [PRP8]
doa10∆
  protein stability index: 3.53 ± 0.12
pdr5∆
  protein stability index: 3.26 ± 0.12
san1∆
  protein stability index: 3.15 ± 0.09
ubr1∆
  protein stability index: 3.37 ± 0.068

## YEKELMGDELTRSHFNA [RPN6]
doa10∆
  protein stability index: 2.96 ± 0.13
pdr5∆
  protein stability index: 3.39 ± 0.15
san1∆
  protein stability index: 3.34 ± 0.057
ubr1∆
  protein stability index: 3.48 ± 0.1

## LQNLQRIIRKKIFIAVV [RRI2]
doa10∆
  protein stability index: 1.21 ± 0.078
pdr5∆
  protein stability index: 1.19 ± 0.073
ubr1∆
  protein stability index: 1.16 ± 0.091

## TRVRLPSGAKKVISSDA [RPL2A]
doa10∆
  protein stability index: 3.25 ± 0.092
pdr5∆
  protein stability index: 3.27 ± 0.084
san1∆
  protein stability index: 3.26 ± 0.049
ubr1∆
  protein stability index: 3.26 ± 0.072

## SSNVQQPQQQLGDMENN [RTT102]
doa10∆
  protein stability index: 3.21 ± 0.19
pdr5∆
  protein stability index: 3.29 ± 0.12
san1∆
  protein stability index: 3.11 ± 0.088
ubr1∆
  protein stability index: 3.21 ± 0.17

## AEEQTKLQSQSLHTKNV [YLR018C/POM34]
doa10∆
  protein stability index: 3.29 ± 0.058
pdr5∆
  protein stability index: 3.44 ± 0.063
san1∆
  protein stability index: 3.1 ± 0.071
ubr1∆
  protein stability index: 3.13 ± 0.049

## PRALQPSQFGMLCTADT [RET1]
doa10∆
  protein stability index: 1.87 ± 0.1
pdr5∆
  protein stability index: 1.57 ± 0.05
san1∆
  protein stability index: 2.02 ± 0.13
ubr1∆
  protein stability index: 2.18 ± 0.051

## ISTSDVTRIINSSEIQS [RPL4A]
doa10∆
  protein stability index: 2.39 ± 0.04
pdr5∆
  protein stability index: 2.64 ± 0.054
san1∆
  protein stability index: 2.34 ± 0.071
ubr1∆
  protein stability index: 2.58 ± 0.043

## ARKGLTPSQIGVLLRDA [RPS13]
doa10∆
  protein stability index: 2.91 ± 0.26
san1∆
  protein stability index: 2.09 ± 0.21
ubr1∆
  protein stability index: 2.32 ± 0.041

Reference: the supplement of paper PMC9732359
